These results are taken from the supplement of paper PMC9112550, “Optimization of the antimicrobial peptide Bac7 by deep mutational scanning” (BMC Biology, 2022).

The test system of the data set is Escherichia coli TOP10. Description: shrunken log2 fold change of peptide-encoding DNA abundance (4.5 h post-induction vs induction); higher = less antimicrobial activity (less host growth inhibition). The conditions noted are these: time post-induction: 4.5 h; library: site-saturation at positions 5, 18, 19, 20.
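Further: peptides expressed intracellularly from a pBAD plasmid library in pooled LB shake-flask culture, induced with 0.3% L-arabinose, DNA abundance read by NGS, three biological replicates, DESeq2 with apeglm shrinkage.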

For RRIRHRPPRLPRPRPRPGRQPRP, the “shrunken log2 fold change” value is -0.0906.

For RRIRCRPPRLPRPRPRPRHCPRP, the “shrunken log2 fold change” value was 0.423.

On to RRIRRRPPRLPRPRPRPLKHPRP, for which the “shrunken log2 fold change” value was 0.208.

For the sequence RRIRVRPPRLPRPRPRPRSTPRP, the “shrunken log2 fold change” value amounted to 0.0765.

With RRIRDRPPRLPRPRPRPNRNPRP, the “shrunken log2 fold change” value was -0.227. Turning to RRIRNRPPRLPRPRPRPLNHPRP, the “shrunken log2 fold change” value was -0.286. For RRIRMRPPRLPRPRPRPSKPPRP, the “shrunken log2 fold change” value was 0.0519. As for RRIRVRPPRLPRPRPRPCMFPRP, the “shrunken log2 fold change” value was -0.559.

RRIRIRPPRLPRPRPRPSVSPRP: the “shrunken log2 fold change” value was -0.0804. For RRIRHRPPRLPRPRPRPGTWPRP, the “shrunken log2 fold change” value is -0.0162.

Take RRIRLRPPRLPRPRPRPMASPRP: the “shrunken log2 fold change” value is 0.0148. As for RRIRWRPPRLPRPRPRPMLFPRP, the “shrunken log2 fold change” value was -0.00681. For the sequence RRIRMRPPRLPRPRPRPVVTPRP, the “shrunken log2 fold change” value was determined as 0.0538.

Consider RRIRWRPPRLPRPRPRPWCEPRP, for which the “shrunken log2 fold change” value is -0.372. In the case of RRIRPRPPRLPRPRPRPSKMPRP it was -0.169; in that of RRIRWRPPRLPRPRPRPKCLPRP, -0.197. Regarding RRIRLRPPRLPRPRPRPFYVPRP, the “shrunken log2 fold change” value is -0.5. Regarding RRIRMRPPRLPRPRPRPWVYPRP, the “shrunken log2 fold change” value was -0.0124. For RRIRQRPPRLPRPRPRPQCNPRP, the “shrunken log2 fold change” value was -0.0983. On to RRIRNRPPRLPRPRPRPSVLPRP, for which the “shrunken log2 fold change” value was determined as 0.0978. The value for RRIRVRPPRLPRPRPRPIYEPRP was -0.184.

On to RRIRIRPPRLPRPRPRPHMFPRP, for which the “shrunken log2 fold change” value is -1. In the case of RRIRCRPPRLPRPRPRPTTGPRP it was -0.0721. As for RRIRGRPPRLPRPRPRPWYEPRP, the “shrunken log2 fold change” value is -0.14. With RRIRSRPPRLPRPRPRPCGHPRP, the “shrunken log2 fold change” value worked out at 0.0213. In the case of RRIRFRPPRLPRPRPRPMGHPRP it was -0.184; in that of RRIRPRPPRLPRPRPRPDILPRP, -0.51; in that of RRIRMRPPRLPRPRPRPKCGPRP, 0.574. On to RRIRGRPPRLPRPRPRPNSAPRP, for which the “shrunken log2 fold change” value is 0.749.

For the sequence RRIRQRPPRLPRPRPRPTITPRP, the “shrunken log2 fold change” value is -0.273. RRIRIRPPRLPRPRPRPFLIPRP: the “shrunken log2 fold change” value is -0.606. Turning to RRIRFRPPRLPRPRPRPCQEPRP, the “shrunken log2 fold change” value came to 0.176.

Consider RRIRPRPPRLPRPRPRPEMLPRP, for which the “shrunken log2 fold change” value was found to be 0.16.

As to RRIRIRPPRLPRPRPRPNTMPRP, the “shrunken log2 fold change” value is -0.264. On to RRIRERPPRLPRPRPRPWRMPRP, for which the “shrunken log2 fold change” value was -0.13. In the case of RRIRHRPPRLPRPRPRPNMFPRP, the “shrunken log2 fold change” value is -0.464. Take RRIRPRPPRLPRPRPRPDDWPRP: the “shrunken log2 fold change” value turned out to be 0.247.

Take RRIRQRPPRLPRPRPRPFEWPRP: the “shrunken log2 fold change” value turned out to be 0.0112. RRIRQRPPRLPRPRPRPDDFPRP: the “shrunken log2 fold change” value was -0.0929.

With RRIRVRPPRLPRPRPRPLTMPRP, the “shrunken log2 fold change” value was -0.319. Consider RRIRNRPPRLPRPRPRPQRSPRP, for which the “shrunken log2 fold change” value was found to be 0.0667. Consider RRIRGRPPRLPRPRPRPMINPRP, for which the “shrunken log2 fold change” value stood at 0.574. In the case of RRIRYRPPRLPRPRPRPTLAPRP, the “shrunken log2 fold change” value was 0.239. For the sequence RRIRDRPPRLPRPRPRPTDEPRP, the “shrunken log2 fold change” value came to 0.0606.

For the sequence RRIRGRPPRLPRPRPRPYWYPRP, the “shrunken log2 fold change” value was -0.211. For RRIRRRPPRLPRPRPRPYQGPRP, the “shrunken log2 fold change” value was -0.00892. For the sequence RRIRVRPPRLPRPRPRPEFGPRP, the “shrunken log2 fold change” value is 0.177. In the case of RRIRDRPPRLPRPRPRPSEAPRP, the “shrunken log2 fold change” value was 0.0437. In the case of RRIRNRPPRLPRPRPRPIPVPRP it was 1.22; in that of RRIRERPPRLPRPRPRPPFCPRP, 0.117. Regarding RRIRSRPPRLPRPRPRPRNNPRP, the “shrunken log2 fold change” value was -0.212. RRIRMRPPRLPRPRPRPCAPPRP: the “shrunken log2 fold change” value was 0.478. For the sequence RRIRWRPPRLPRPRPRPIPGPRP, the “shrunken log2 fold change” value is 0.0313. As for RRIRVRPPRLPRPRPRPETFPRP, the “shrunken log2 fold change” value was -0.0527. As to RRIRQRPPRLPRPRPRPSKRPRP, the “shrunken log2 fold change” value is -0.188. RRIRIRPPRLPRPRPRPIFTPRP: the “shrunken log2 fold change” value was 0.0285. For the sequence RRIRERPPRLPRPRPRPAGEPRP, the “shrunken log2 fold change” value was determined as 0.0657. In the case of RRIRCRPPRLPRPRPRPNNHPRP it was -0.731; in that of RRIRGRPPRLPRPRPRPWVGPRP, 0.12; in that of RRIRWRPPRLPRPRPRPCFYPRP, -0.249. On to RRIRFRPPRLPRPRPRPRKTPRP, for which the “shrunken log2 fold change” value was 0.0798.

On to RRIRDRPPRLPRPRPRPPHQPRP, for which the “shrunken log2 fold change” value is -0.022. RRIRMRPPRLPRPRPRPNYKPRP: the “shrunken log2 fold change” value is -0.504.

As to RRIRRRPPRLPRPRPRPWGEPRP, the “shrunken log2 fold change” value is 2.96. On to RRIRSRPPRLPRPRPRPFAHPRP, for which the “shrunken log2 fold change” value turned out to be 0.0573.

As to RRIRFRPPRLPRPRPRPIASPRP, the “shrunken log2 fold change” value is -0.015. With RRIRFRPPRLPRPRPRPHRSPRP, the “shrunken log2 fold change” value is -0.222. Turning to RRIRQRPPRLPRPRPRPHHNPRP, the “shrunken log2 fold change” value was -0.706. As for RRIRFRPPRLPRPRPRPFQPPRP, the “shrunken log2 fold change” value is -0.334. In the case of RRIRSRPPRLPRPRPRPHAWPRP, the “shrunken log2 fold change” value is 0.149. In the case of RRIRNRPPRLPRPRPRPTHHPRP, the “shrunken log2 fold change” value was -0.0659. For RRIRMRPPRLPRPRPRPRAKPRP, the “shrunken log2 fold change” value worked out at 1.25. As to RRIRGRPPRLPRPRPRPWFMPRP, the “shrunken log2 fold change” value is -0.384. In the case of RRIRRRPPRLPRPRPRPEWRPRP it was 0.639; in that of RRIRWRPPRLPRPRPRPHMPPRP, -0.768; in that of RRIRHRPPRLPRPRPRPHCNPRP, -0.158. In the case of RRIRLRPPRLPRPRPRPWVGPRP, the “shrunken log2 fold change” value worked out at 0.233.

On to RRIRNRPPRLPRPRPRPMNLPRP, for which the “shrunken log2 fold change” value came out at 0.0249. For the sequence RRIRNRPPRLPRPRPRPHKLPRP, the “shrunken log2 fold change” value is -0.411. With RRIRPRPPRLPRPRPRPCVPPRP, the “shrunken log2 fold change” value is -0.134.

Regarding RRIRIRPPRLPRPRPRPLSCPRP, the “shrunken log2 fold change” value was -0.253. As for RRIRRRPPRLPRPRPRPPFFPRP, the “shrunken log2 fold change” value was determined as 0.565. RRIRKRPPRLPRPRPRPGVLPRP: the “shrunken log2 fold change” value is 0.293. Turning to RRIRARPPRLPRPRPRPWDIPRP, the “shrunken log2 fold change” value worked out at 0.173. RRIRWRPPRLPRPRPRPWLIPRP: the “shrunken log2 fold change” value came out at 0.112. Turning to RRIRWRPPRLPRPRPRPRTMPRP, the “shrunken log2 fold change” value is 0.205.

In the case of RRIRMRPPRLPRPRPRPMFFPRP, the “shrunken log2 fold change” value was -0.0106. With RRIRKRPPRLPRPRPRPVWKPRP, the “shrunken log2 fold change” value came out at 0.138.

On to RRIRLRPPRLPRPRPRPIGGPRP, for which the “shrunken log2 fold change” value was 0.0938. In the case of RRIRERPPRLPRPRPRPMDEPRP, the “shrunken log2 fold change” value is -0.153. The value for RRIRWRPPRLPRPRPRPWQNPRP was -0.159; that for RRIRLRPPRLPRPRPRPVPDPRP was 0.00559; that for RRIRNRPPRLPRPRPRPGLRPRP was 0.0575. The value for RRIRPRPPRLPRPRPRPANWPRP was 0.22; that for RRIRYRPPRLPRPRPRPCRSPRP was 0.00487; that for RRIRVRPPRLPRPRPRPDKPPRP was 0.028.

Turning to RRIRGRPPRLPRPRPRPPNIPRP, the “shrunken log2 fold change” value amounted to 0.083. For RRIRWRPPRLPRPRPRPTQCPRP, the “shrunken log2 fold change” value was found to be 0.115. RRIRTRPPRLPRPRPRPKGCPRP: the “shrunken log2 fold change” value was 0.00952. In the case of RRIRPRPPRLPRPRPRPGLAPRP it was 0.841; in that of RRIRNRPPRLPRPRPRPHFDPRP, -0.356. As for RRIRGRPPRLPRPRPRPCFNPRP, the “shrunken log2 fold change” value was found to be 0.436. The value for RRIRARPPRLPRPRPRPHYVPRP was -0.255; that for RRIRFRPPRLPRPRPRPKEWPRP was -0.00364; that for RRIRERPPRLPRPRPRPEAYPRP was -0.0132. Turning to RRIRARPPRLPRPRPRPTRQPRP, the “shrunken log2 fold change” value was determined as 0.982.

On to RRIRSRPPRLPRPRPRPDSVPRP, for which the “shrunken log2 fold change” value is 0.107. In the case of RRIRSRPPRLPRPRPRPDQPPRP, the “shrunken log2 fold change” value was found to be 0.0272. In the case of RRIRNRPPRLPRPRPRPFVPPRP it was -0.263; in that of RRIRCRPPRLPRPRPRPKWHPRP, -0.169; in that of RRIRTRPPRLPRPRPRPNACPRP, -0.0597. RRIRNRPPRLPRPRPRPFPVPRP: the “shrunken log2 fold change” value is -0.125. The value for RRIRSRPPRLPRPRPRPEFTPRP was 0.171. In the case of RRIRPRPPRLPRPRPRPLHCPRP it was -0.382; in that of RRIRQRPPRLPRPRPRPHLQPRP, -0.0325; in that of RRIRCRPPRLPRPRPRPVFNPRP, -0.204. RRIRQRPPRLPRPRPRPKTYPRP: the “shrunken log2 fold change” value was -0.241. Turning to RRIRHRPPRLPRPRPRPRTNPRP, the “shrunken log2 fold change” value was 0.0589. Consider RRIRGRPPRLPRPRPRPHALPRP, for which the “shrunken log2 fold change” value was 0.0818. RRIRIRPPRLPRPRPRPLKIPRP: the “shrunken log2 fold change” value was 1.44.

Turning to RRIRTRPPRLPRPRPRPYLMPRP, the “shrunken log2 fold change” value was -0.601. The value for RRIRLRPPRLPRPRPRPFNEPRP was -0.255. As to RRIRMRPPRLPRPRPRPGKYPRP, the “shrunken log2 fold change” value turned out to be 0.0424. On to RRIRQRPPRLPRPRPRPITKPRP, for which the “shrunken log2 fold change” value was -0.0284. The value for RRIRSRPPRLPRPRPRPFARPRP was -0.172.
